# Laboratory results reported in publication PMC8599648 (Molecular microbiology, 2021).
# How the values were obtained:
# SEC = target: the molecule itself; experiment: SEC
# cross-linking = target: the molecule itself; experiment: cross-linking
Protein,stoichiometry N (SEC),binding result (cross-linking)
"FNR D154A (natural protein, E. coli (strain MG1655), UniProt P0A9E5 1-250, looked up) MIPEKRIIRRIQSGGCAIHCQDCSISQLCIPFTLNEHELDQLDNIIERKKPIQKGQTLFKAGDELKSLYAIRSGTIKSYTITEQGDEQITGFHLAGDLVGFDAIGSGHHPSFAQALETSMVCEIPFETLDDLSGKMPNLRQQMMRLMSGEIKGAQDMILLLSKKNAEERLAAFIYNLSRRFAQRGFSPREFRLTMTRGDIGNYLGLTVETISRLLGRFQKSGMLAVKGKYITIENNDALAQLAGHTRNVA",2,
"YnfK I184Y (enzyme, E. coli (strain MG1655), UniProt P0A6E9 1-231, looked up) MLKRFFITGTDTSVGKTVVSRALLQALASQGKTVAGYKPVAKGSKETPEGLRNKDALVLQSVSTIELPYEAVNPIALSEEESSVAHSCPINYTLISNGLANLTEKVDHVVVEGTGGWRSLMNDLRPLSEWVVQEQLPVLMVVGIQEGCINHALLTAQAIANDGLPLIGWVANRINPGLAHYAEYIDVLGKKLPAPLIGELPYLPRAEQRELGQYIRLAMLRSVLAVDRVTV",,binds
"YnfK S13E/I184Y (enzyme, E. coli (strain MG1655), UniProt P0A6E9 1-231, looked up) MLKRFFITGTDTEVGKTVVSRALLQALASQGKTVAGYKPVAKGSKETPEGLRNKDALVLQSVSTIELPYEAVNPIALSEEESSVAHSCPINYTLISNGLANLTEKVDHVVVEGTGGWRSLMNDLRPLSEWVVQEQLPVLMVVGIQEGCINHALLTAQAIANDGLPLIGWVANRINPGLAHYAEYIDVLGKKLPAPLIGELPYLPRAEQRELGQYIRLAMLRSVLAVDRVTV",,binds
"YnfK T114A (enzyme, E. coli (strain MG1655), UniProt P0A6E9 1-231, looked up) MLKRFFITGTDTSVGKTVVSRALLQALASQGKTVAGYKPVAKGSKETPEGLRNKDALVLQSVSTIELPYEAVNPIALSEEESSVAHSCPINYTLISNGLANLTEKVDHVVVEGAGGWRSLMNDLRPLSEWVVQEQLPVLMVVGIQEGCINHALLTAQAIANDGLPLIGWVANRINPGLAHYAEIIDVLGKKLPAPLIGELPYLPRAEQRELGQYIRLAMLRSVLAVDRVTV",,binds
"YnfK T114A/I184Y (enzyme, E. coli (strain MG1655), UniProt P0A6E9 1-231, looked up) MLKRFFITGTDTSVGKTVVSRALLQALASQGKTVAGYKPVAKGSKETPEGLRNKDALVLQSVSTIELPYEAVNPIALSEEESSVAHSCPINYTLISNGLANLTEKVDHVVVEGAGGWRSLMNDLRPLSEWVVQEQLPVLMVVGIQEGCINHALLTAQAIANDGLPLIGWVANRINPGLAHYAEYIDVLGKKLPAPLIGELPYLPRAEQRELGQYIRLAMLRSVLAVDRVTV",,binds
"YnfK S13E (enzyme, E. coli (strain MG1655), UniProt P0A6E9 1-231, looked up) MLKRFFITGTDTEVGKTVVSRALLQALASQGKTVAGYKPVAKGSKETPEGLRNKDALVLQSVSTIELPYEAVNPIALSEEESSVAHSCPINYTLISNGLANLTEKVDHVVVEGTGGWRSLMNDLRPLSEWVVQEQLPVLMVVGIQEGCINHALLTAQAIANDGLPLIGWVANRINPGLAHYAEIIDVLGKKLPAPLIGELPYLPRAEQRELGQYIRLAMLRSVLAVDRVTV",,binds
